Measured values published in PMC11303871 (The Journal of Cell Biology, 2024).
Blank lines part the entries; values can stand above or below the binder they belong to.

Biological target: T1, 3xFlag::CYB-3 (in situ-tagged cyclin B3) (C. elegans, UniProt Q10654 1-385)
T1 sequence: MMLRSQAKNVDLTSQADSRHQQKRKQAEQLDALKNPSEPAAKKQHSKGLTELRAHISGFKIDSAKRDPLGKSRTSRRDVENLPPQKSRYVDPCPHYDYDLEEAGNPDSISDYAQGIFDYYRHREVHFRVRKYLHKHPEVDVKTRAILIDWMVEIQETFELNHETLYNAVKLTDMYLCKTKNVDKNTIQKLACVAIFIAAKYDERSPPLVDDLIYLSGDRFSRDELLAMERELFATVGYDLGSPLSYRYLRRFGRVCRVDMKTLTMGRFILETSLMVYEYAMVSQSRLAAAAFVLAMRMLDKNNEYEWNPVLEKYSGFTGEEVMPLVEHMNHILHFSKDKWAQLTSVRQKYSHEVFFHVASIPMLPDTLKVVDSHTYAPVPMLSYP
Test: co-IP

amount of pT179 CDK-1 bound relative to CYB-1: ~1.3 fold
B1: CDK-1 phosphorylated at T179 (pT179 CDK-1), endogenous (enzyme)
chain: not shown
modifications: phosphothreonine at 179 (pT179)

amount of CDK-1 bound relative to CYB-1: ~1.3 times
B2: CDK-1 (C. elegans Cdk1), endogenous (enzyme)
chain: not shown

amount of pY33 CDK-1 bound relative to CYB-1: ~1.3 fold
B3: CDK-1 phosphorylated at Y33 (pY33 CDK-1), endogenous (enzyme)
chain: not shown
modifications: phosphotyrosine at 33 (pY33)
